According to publication PMC4582117, “VEGF-A/NRP1 stimulates GIPC1 and Syx complex formation to promote RhoA activation and proliferation in skin cancer cells” (Biology Open, 2015):

Molecular target: T1, HA-tagged GIPC1 (GAIP interacting protein C terminus) (UniProt O14908 1-333)
T1 construct: GIPC1, scaffold protein with a PDZ domain; The plasmid list begins with 'Human NRP1WT, HA-tagged GIPC1, ...'; it is not clear whether 'Human' also covers GIPC1; also called GIPC1 (HA); source: HEK293T, transfected (pcDNA 3.1 TOPO, FuGENE6), in lysate
T1 sequence (looked up): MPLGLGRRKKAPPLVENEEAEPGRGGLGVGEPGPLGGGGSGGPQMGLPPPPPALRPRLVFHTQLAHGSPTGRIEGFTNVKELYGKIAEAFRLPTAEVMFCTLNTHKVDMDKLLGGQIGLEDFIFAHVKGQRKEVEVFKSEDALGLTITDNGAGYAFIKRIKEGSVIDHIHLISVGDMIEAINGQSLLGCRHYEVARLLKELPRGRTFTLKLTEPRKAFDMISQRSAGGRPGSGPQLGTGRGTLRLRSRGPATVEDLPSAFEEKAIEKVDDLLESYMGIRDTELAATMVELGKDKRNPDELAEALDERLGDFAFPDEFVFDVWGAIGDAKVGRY
Experiment: co-IP; Scrambled or Targeted peptide mixed with lysate of HEK293T overexpressing HA-GIPC1, 1 h rotation at 4°C; co-immunoprecipitated with GIPC1; blot with anti-GFP
Details: one partner purified

B1: TAT-EGFP-peptide 1 (STLTASEV), the Targeted peptide (peptide)
chain: GSTLTASEV
notes: Detected with anti-GFP; also called Target peptide; not shown: EGFP, N-terminal, kept
fold binding over the Scrambled peptide: 3 fold
